The results in this text go back to patent US10137183B2, “Peptide compositions having 4 linked CTL epitopes and uses thereof” (TAIHO PHARMACEUTICAL CO., LTD., priority 2013, dated 2018).

This experiment has as its target T1, Human 20S immunoproteasomes (Homo sapiens, UniProt P28062+P28065+P40306).
T1 construct: purchased R&D systems
Briefly: Peptide cleavage with human 20S immunoproteasomes (i20S), LC/MS-MS of fragments. The class given is biochemical. The note with it: 66.7 μg/mL peptide, 37° C., 1, 2 or 4 hours. The method, then:
Cleavage samples of peptides having 4 linked epitopes were prepared in the manner described below. Specifically, peptides having 4 linked epitopes were diluted to 66.7 μg/mL with a reaction buffer (20 mM HEPES-KOH, pH 7.8, 2 mM MgAc2, 2 mM dithiothreitol), and the resultant was dispensed into reaction tubes in amounts of 300 μL per tube. Human 20S immunoproteasomes (R&D systems) were added thereto in amounts of 2 μg per tube, the mixtures were agitated, and the resultants were then subjected to incubation with shaking at 37° C. for 1, 2, or 4 hours. […]
Subsequently, the obtained cleavage samples of the peptides having 4 linked epitopes were applied to the LC/MS-MS systems (Acquity UPLC system, Waters; Synapt G2 HDMS, Waters), so as to perform comprehensive analysis of the molecular weights of the peptide fragments. With the use of analytical software (MassLynx, ver. 4.1, SCN712, Waters), the samples were analyzed, and the peptide fragments were identified. The peptides having 4 linked epitopes were evaluated to be cleavable upon development of any of a peptide in which the epitope peptide was cleaved, a peptide comprising arginine residues added to the N terminus of the epitope peptide, or a peptide comprising an arginine dimer added to the N terminus of the epitope peptide, as a result of cleavage with immunoproteasomes.

As to “ASLDSDPWV (listed as Homo sapiens) [PEP2]”, the “cleavage determining the C terminal amino acids of the CTL epitope peptide” value is “required to be located at positions nearest to the C terminus”.
Under “ILEQSGEWWK (listed as Homo sapiens) [PEP10]” stands “required to be located at positions nearest to the C terminus”.
